The text below walks through data of patent publication US6030602A, “Peptide conjugates for transfecting cells” (Hoffmann-La Roche Inc., priority 1996, dated 2000).

Format in all cases: cell-based
The test system of data set [1] is suspension cell-line WEHI 231.7. Kind of data set: Transfection with luciferase plasmid, compound of Example 1b or cationic lipids (Table 4). Particulars: for Luciferase activity: WEHI 231.7, 6 well plates, 2 μg DNA per well, 48 h, background subtracted, DOTAP/DOSPER at cationic lipid/DNA 5/1 (wt/wt). Here is the method:
a) 1.0 mg of the compound obtained in Example 1b) was dissolved in trifluoroethanol and dried in vacuo. The film was then rehydrated with 1 ml of 10 mM Tris maleate buffer pH 6.
b) 10 μl of a plasmid DNA solution (1 mg/ml) were diluted with 190 μl of pure, sterile water. 100 μl of the product obtained in paragraph a) were added and gently mixed. The mixture was then added to cells.
Table 4: Transfection of various cell lines with the compound of Example 1b or cationic lipids. Cells grown in 6 well plates were transfected with a luciferase encoding plasmid (2 μg DNA per well) formulated as described earlier in this Example. Luciferase activity was measured 48 h later. Results are expressed as light units per mg of cell protein. Background was substracted from each measurement.
*)DOTAP (Avanti Polar Lipids Inc.) or DOSPER (BoehringerMannheim)
transfection complexes were prepared according to manufacturer's
instructions and were used at a cationic lipid/DNA ratio of 5/1 (wt/wt).

The subject of data set [2] is 293 EBNA cells. Kind of data set: Transfection of 293 EBNA cells with compound of Example 1b, polyethylenimine or a mixture thereof (Table 5). Particulars: 6 cm dishes, 1 μg DNA per well, 48 h. Here is the method: a) 1.0 mg of the compound obtained in Example 1b) was dissolved in trifluoroethanol and dried in vacuo. The film was then rehydrated with 1 ml of 10 mM Tris maleate buffer pH 6. b) 10 μl of a plasmid DNA solution (1 mg/ml) were diluted with 200 μl of pure, sterile water. 39 μl of the product obtained in paragraph a) and 14 μl of an aqueous polyethylenimine solution (0.45 mg/ml) were added. The mixture was adjusted with water to 300 μl, gently mixed and then added to 292 EBNA cells. […]
c) 10 μl of a plasmid DNA solution (1 mg/ml) were diluted with 200 μl of pure, sterile water. 52 μl of the product obtained in paragraph a) were added and adjusted with water to 300 μl. The mixture was gently mixed and then added to 292 EBNA cells. […]
d) 10 μl of a plasmid DNA solution (1 mg/ml) were diluted with 200 μl of pure, sterile water. 56 μl of an aqueous polyethylenimine solution (0.45 mg/ml) were added and adjusted with water to 300 μl. The mixture was gently mixed and then added to 292 EBNA cells.
Transfection of 293 EBNA cells with the compound of Example
| 1b, polyethylenimine or a mixture thereof. Cells grown in 6 cm dishes | were transfected with a luciferase encoding plasmid (1 μg DNA per […]
formulated as described earlier in this Example. Luciferase activity […]
measured 48 h later. Results are expressed as relative light units per

For data set [3], the system named is COS-1. Kind of data set: Transfection with β-galactosidase plasmid, increasing DNA doses (Table 3). The following applies: mixture with DOPE, 48 h after transfection. As for the experimental part:
(§1) a) 1.1 mg of the compound obtained in Example 1b) were solubilized in trifluoroethanol and mixed with 1.1 mg of dioleoylphosphatidyl-ethanolamine (DOPE) in chloroform. The mixture was dried in vacuo and the remaining film rehydrated with 1 ml of 30 mM Tris Cl buffer pH 8.5. […]
(§2) b) Plasmid DNA (10 μg) was diluted in 400 μl of 30 mM Tris Cl buffer pH 8.5. Then […] of the product obtain in paragraph a) were added and gently mixed. The mixture was then added to cells.
(§3) The effect of DNA dose on the transfection efficiency of various cell lines using the compound obtained in Example 1b formulated according to the example 2 is shown in Table 3.
(§4) |Transfection of various cell lines with a mixture of the | compound of Example lb and DOPE using increasing DNA doses. Cells
(§5) were transfected with a β-galactosidase encoding plasmid formulated […]
(§6) described earlier in this Example. β-galactosidase activity was […]
(§7) 48 h after transfection. Results are expressed as μ Units per well, […]

The subject of data set [4] is HepG2. The data set is described as above. The following applies: mixture with DOPE, 48 h after transfection. Here is the method:
as §1, §2, §3, §4, §5, §6, §7

The test system of data set [5] is 3T3. Described as above. Particulars: mixture with DOPE, 48 h after transfection. Here is the method: as §1, §2, §3, §4, §5, §6, §7
In data set [6] the test system is CV-1. The data set is described as above. The following applies: mixture with DOPE, 48 h after transfection. As for the experimental part: as §1, §2, §3, §4, §5, §6, §7
Data set [7] has as its system various cell lines. Kind of data set: Toxicity on cells at high doses of DNA and compound (Table 3 experiment). The following applies: formulated according to Example 2. As for the experimental part: a) 1.1 mg of the compound obtained in Example 1b) were solubilized in trifluoroethanol and mixed with 1.1 mg of dioleoylphosphatidyl-ethanolamine (DOPE) in chloroform. The mixture was dried in vacuo and the remaining film rehydrated with 1 ml of 30 mM Tris Cl buffer pH 8.5.
as §2, §3

Data set [8] concerns 293-EBNA. In words: Transfection with luciferase plasmid, compound of Example 1b/DOPE or cationic lipids (Table 2). The following applies: 48 h after transfection, Example 1b mixed with DOPE per Example 2, DOTAP, Lipofectamine per manufacturer. Here is the method: as §1, §2
(§8) |Transfection of various cell lines with a mixture of the | compound of Example 1b and DOPE or cationic lipids. Cells were | transfected with a luciferase encoding plasmid formulated as described | earlier in this Example. Luciferase activity was measured 48 h after | transfection. Results are expressed as μ Units per well, | ^2) DOTAP and Lipofectamine transfection complexes were prepared
(§9) according to the manufacturer's instructions.

Data set [9] has as its system CHO K1. Described as above. The following applies: 48 h after transfection, Example 1b mixed with DOPE per Example 2, DOTAP, Lipofectamine per manufacturer. Here is the method:
as §1, §2, §8, §9

For data set [10], the system named is LM tk-. Described as above. The following applies: 48 h after transfection, Example 1b mixed with DOPE per Example 2, DOTAP, Lipofectamine per manufacturer. As for the experimental part:
as §1, §2, §8, §9

Data set [11] relates to LM. The description is as above. The following applies: 48 h after transfection, Example 1b mixed with DOPE per Example 2, DOTAP, Lipofectamine per manufacturer. Here is the method: as §1, §2, §8, §9
For data set [12], the system named is C2E12. Described as above. The following applies: 48 h after transfection, Example 1b mixed with DOPE per Example 2, DOTAP, Lipofectamine per manufacturer. Here is the method: as §1, §2, §8, §9
Data set [13] deals with HeLa. The description is as above. The following applies: 48 h after transfection, Example 1b mixed with DOPE per Example 2, DOTAP, Lipofectamine per manufacturer. Here is the method: as §1, §2, §8, §9

With “compound of formula IIA wherein R^1 and R^2 are oleoyl and R^3 is the residue --(CH2)--CH(NH2)--CO-Ile-Gly-Ala-Val-Leu-Lys-Val-Leu-Thr-Thr-Gly-Leu-Pro-Ala-Leu-Ile-Ser-Trp-Ile-Lys-Arg-Lys-Arg-Gln-Gln-NH2 [Example 1b]”, the “Ability to transfect the suspension cell-line WEHI 231.7” value in [1] (compared with DOTAP and DOSPER, same transfection conditions) was “able to transfect the suspension cell-line WEHI 231.7, albeit at a low level”. The Luciferase activity in data set [2] is reported as 3.9 × 10^5 relative light units per dish; in [8], 2343658 μ Units per well; in data set [9], 1825019 μ Units per well; in data set [10] it was 1712739 μ Units per well; in data set [11], 31685 μ Units per well; in data set [12], 563827 μ Units per well. Also, the Luciferase activity in data set [13] came to 33497 μ Units per well. Also, the Galactosidase activity in [3] (0.2 μg DNA) was 16325 μ Units per well; in data set [3] (0.5 μg DNA), 20545 μ Units per well; in data set [3] (1 μg DNA) it was 16005 μ Units per well; in [3] (2 μg DNA), 15740 μ Units per well; in data set [4] (0.2 μg DNA) it was 2533 μ Units per well; in data set [4] (0.5 μg DNA) it was 7944 μ Units per well. The Galactosidase activity in data set [4] (1 μg DNA) amounted to 8988 μ Units per well; in data set [4] (2 μg DNA), 13816 μ Units per well; in [5] (0.2 μg DNA), 318 μ Units per well; in data set [5] (0.5 μg DNA), 451 μ Units per well; in data set [5] (1 μg DNA), 1032 μ Units per well; in data set [5] (2 μg DNA), 1301 μ Units per well. In addition, the Galactosidase activity in data set [6] (0.2 μg DNA) is 2700 μ Units per well; in [6] (0.5 μg DNA), 4440 μ Units per well; in data set [6] (1 μg DNA) it was 9775 μ Units per well; in [6] (2 μg DNA), 20434 μ Units per well. In addition, in [7], the Toxicity on cells result is given as “without any obvious toxicity”.
As to `CCCCCCCC/C=C\CCCCCCCC(=O)OCC(C[N+](C)(C)C)OC(=O)CCCCCCC/C=C\CCCCCCCC` (stereo not drawn) [DOTAP, reference compound], the Luciferase activity in data set [1] is 0 light units per mg of cell pro; in data set [8] it was 706718 μ Units per well; in data set [9], 814133 μ Units per well; in data set [10], 594518 μ Units per well; in data set [11], 68614 μ Units per well; in [12] it was 156947 μ Units per well. Besides, the Luciferase activity in [13] stood at 5409 μ Units per well.
For `CCCCCCCC/C=C\CCCCCCCC(=O)OCC(COC(=O)CCCCCCC/C=C\CCCCCCCC)NC(=O)C(CCCNCCCN)NCCCN` (stereo not drawn) [DOSPER], the Luciferase activity in data set [1] was 0 light units per mg of cell pro.
